Measurements: paper PMC4046772, “Different Dynamical Effects in Mesophilic and Hyperthermophilic Dihydrofolate Reductases” (Journal of the American Chemical Society, 2014)

Key:
steady-state kinetics [1] = substrate: NC(=O)C1=CN([C@@H]2O[C@H](COP(=O)(O)OP(=O)(O)OC[C@H]3O[C@@H](n4cnc5c(N)ncnc54)[C@H](OP(=O)(O)O)[C@@H]3O)[C@@H](O)[C@H]2O)C=CC1; test: steady-state kinetics; assay type: biochemical, Thermotoga maritima; details: 45 °C, light enzyme (natural isotope abundance), co-substrate dihydrofolate, steady-state kinetics at pH 7
steady-state kinetics [2] = substrate: Nc1nc2c(c(=O)[nH]1)N=C(CNc1ccc(C(=O)N[C@@H](CCC(=O)O)C(=O)O)cc1)CN2; test: steady-state kinetics; assay type: biochemical, Thermotoga maritima; details: 45 °C, light enzyme (natural isotope abundance), co-substrate NADPH, steady-state kinetics at pH 7

B1: TmDHFR (Thermotoga maritima MSB8) (protein)
chain: MAKVIFVLAMDVSGKIASSVESWSSFEDRKNFRKITTEIGNVVMGRITFEEIGRPLPERLNVVLTRRPKTSNNPSLVFFNGSPADVVKFLEGKGYERVAVIGGKTVFTEFLREKLVDELFVTVEPYVFGKGIPFFDEFEGYFPLKLLEMRRLNERGTLFLKYSVEKSHR
notes: purified homodimer, natural isotope abundance (light) enzyme; procedures in supplement
B1 was tested, and the Km (steady-state kinetics [1]) was 1 µM and the Km (steady-state kinetics [2]) was 1 µM.
